A protein production outcome set (Wang et al. 2014)

Experiment: label from the status in PepcDB records

| Sequence | protein production |
| --- | --- |
| MGDFDPNKPVVISEFSPKEGGLGTRMLLYGENFGSDISKIKVTIGGQDSKVVGAKGKSLYCVVPAKAYDGDIKLSILNDEGEEIANTEANEKFVYQKKMLVTTFLGTMYDGNTKYDLKDGPFDDCGGFGGAVWLSFDPKNHNHLYLVGEQHPTRLIDFEKEYVSTVYSGLSKVRTICWTHEADSMIITNDQNNNDRPNNYILTRESGFKVITELTKGQNCNGAETHPINGELYFNSWNAGQVFRYDFTTQETTPLFTIQDSGWEFHIQFHPSGNYAYIVVVNQHYILRSDYDWKTKRLTTPYIVCGQQGAKDWVDGVGKKARMHAPRQGTFVKNPAYKGSSDEYDFYFCDRENHCIRILTPQGRVTTFAGRGSNGTSGYNDGDLRQEARFNHPEGIVYDEERECFFIGDRENRRIRKIGLEHHHHHH | failed |
| MDAKHIEKVFVKKVPAKSNKAQVKYPFDENSVNVLIIGLDKASNRSTYDLHRTDTILFLNINFKDKKVKGISIPRDTLTEIYKVGKWDKINSAFGYGGGEKEEGFFYTMETVSKLLGGMPIEYYVGFDLDAVRKVVNILGGVYVNVEVPVKVKTKWVNIDLKPGYQKLNGIETLYYALWRKTPGGDIDRIKRDKELILSVFEQLKESNKIITLPEIYWKIRRHFYTNLSLQQITSLAYFAQNMKKEDIVFESIPGDYFNYMGVSYWKPDYEGIKKLVKDLFGYDIEIDLKMPEKYKYARRIIVKAKKENNISYLEHHHHHH | not failed |
| MAAITTGVVLLRWQLLSAVLMFLASTLNIRFRKSDYIGLAVISSGLGVVSACWFATGLLGITMMDLAAIWHNIEAVMVETMSQTPPEWPMVLT | failed |
| METSRVEEWFERGVEALGHDQVYLARSCFEHVARVNQHPAASSYLALCQAKTRGKFSDAIALARESIAREPHNPLLYQNLGRIYQLAGMRMDAVEVLREGVRRGAGEEAVAELNRIGTRKQPPFRRLHRNHPLNKYVGKLLARLRLR | failed |
| MTPDIRLRVDGRAIVLLTAGCAPGLCPAFAFWACKASAPGRSIAVTPMRSEQQQTDQHADTLHPYACECHAAHLPSSRKKARMRASLFKFGLNLWRPFLFAGIHVTVLSEDYRFARVELRHRPWNRNYVGTHFGGSLFAMTDPFWMLLTIHNLGRDYYVWDKAGNIEFVKPGRGTLTADFVIDDSLLAQLRQATASGEKHLRWFENEVHHRDGEVVARVRKQLYVKRKPAR | failed |
| MNLTFLGLCIACMGVSVGEGLLMNGLFKSVARQPDMLSEFRSLMFLGVAFIEGTFFVTLVFSFIIK | failed |
| MVNPAQARQLDKIRKVNYASNTFELIAKEWLQMKDWAEITKTRRLDMLERVVFPAIGKLPVREITPHHILKILQETAKRGAPTVAAEARRTISSVFELAVATLRADSDPVWPVRKALPALEHHHHHH | failed |
| MELPSFIFQAQENLVERPWGGEWIALLKGFRQSGIGESWEFSAHTSRPSTVLVKGQQLSMIELFSKHRDELLGRAAEKFSKFPILVRLIDAASPTQVHVHPSDKAAESLGEAEGGVESAWLVFNKGKAYAGFKEDVKIEELEEKLKEEDFDFKTLLNTFETTPYDTFVIRPGIPHAGEGLRVLEVSSNSTLAYFFNENDWEKVKKVLNTKKVEEFEVKGKKGMAETENFGLEVVDVTGTAEIKTGGVMNILYAAEGYFILRGKETADLHRGYSCLVPASTDSFTVESERGKIVRIYLKV | not failed |
| MFITTEGINAGYTIKDVVEATSSLMLASEDIDKYNMFDQLFDEAKQKLKKKADLLEGDGIIGLKYNTEVVEVNGAPKFLVVHGYGTVILIDK | not failed |
| MEKMLSTYIEEAMEFYAIGKGADFKAIIEKGIASCMTTYSTYDRELYKAYALLATYLSNHAFKIIKSRPAFQAMAINCFDQLDSLRQQHDPHLQVTKGFLWMLSSSRAQDADALLISVLRNHPKNILALIGRACLAYNRQDYIGALGYFKSVLLIQPQGMADVWVGIGHCFWKMGELEKAQLSFQIALEHNGQCLNAALALALVKFEHNDEQSYQDGKMLLTAAYKENNKNPDLLSILAGMYYADGNHKLVWSFAGNAIKFTANKHIESRNYFQIAKSYHATGQFESAKKYYLLSAKSAPDGYILPLVGVAQMYLHEGELNRSKAFLESFLTSEPDEPVVMDLLAKIYLEYKCPEKIDKAIEMLVKVVESASYHQNTNSWLNLAFAYEQKRLWAHGVNAYQKAIDIYLSQGHQIPIEWLNNLASSQLMAKMPEKALNTLDDALSKCRVMNSDNKTTNLLSLQYNRGLVLEELHMFTLAAENYKSITKEYSSYHDCYLRLGVMAIQKNNHTQAIEHLKDILVEDNLNMTARTYMGDCFKGLSLDKFATFNYNMILARQSKFTNTYVSMAMGNFCLEKLQNWIAEGNFRAARKQQEKALQCFGKILDCNPKNLWAANGIGAVLSSCNNLSAGGAIFKQIIECGNKCIPAIINSAHIALVSGQYRLAIQTYERCLKDHLPKNRVDVMHCLAKALYDNGDARKAKMWLLKVRHLVPHDPFVIFNLGLAIKKETEQALALPRPQLDELMGLDGLLKVAFKLFCHINLNHPKISVRVSAKYAEDCQNLMTELIAKKRQASESHAMEEDRVQLQKQRYRDHIEHQRQQELQREEEERVRRENLKIQRKEVLERTRKIISAPLAPDVPKKSAGNGRAKKNQENGDGKAKKSGPPKKKTRKRAAGKEQEDIEPLKKPKSKEFIDTDDDNSE | failed |
| MVNLDAEIYEHLNKQIKINELRYLSSGDDSDTFLCNEQYVVKVPKRDSVRISQKREFELYRFLENCKLSYQIPAVVYQSDRFNIMKYIKGERITYEQYHKLSEKEKDALAYDEATFLKELHSIEIDCSVSLFSDALVNKKDKFLQDKKLLISILEKEQLLTDEMLEHIETIYENILNNAVLFKYTPCLVHNDFSANNMIFRNNRLFGVIDFGDFNVGDPDNDFLCLLDCSTDDFGKEFGRKVLKYYQHKAPEVAERKAELNDVYWSIDQIIYGYERKDREMLIKGVSELLQTQAEMFIF | not failed |
| MALKTDIRGMIWRYPDYFIVGREQCREFARAVKCDHPAFFSEEAAADLGYDALVAPLTFVTILAKYVQLDFFRHVDVGMETMQIVQVDQRFVFHKPVLAGDKLWARMDIHSVDERFGADIVVTRNLCTNDDGELVMEAYTTLMGQQGDGSARLKWDKESGQVIRTALEHHHHHH | failed |
| MRYLIGGIFLLISIWQFIVTGRTFSYLKKEGGKRTSPFILLGLWSSLVFAIISFAVAIASFFYVSF | failed |
| MIRAASDDPAGVDELVAAIAPGLAGLGLPVINRREVVLVTGPWLAGVSGVRAALAERLPQRRFVETAELGPGDAPVAVVFVVSAATALTESDCVLLDTAAEHTDAVVAVVSKIDVHRGWRDVLTSNRDRLAARASRYARVPWVGAAAAPELGEPYLDDLVAAIQKQLADPAVARRNMLRAWESRLLMVARRFDGDAQSAGRRARVDALRQQRRTVLRQGRQSKSEHTIALRAQIQHARVKLSYFARNRCSLLRVELQEHVAGLSRKDIARFAAYTRGRVQEVVAEVGEGAVAHLADVAQLLGVPVQPPVLENLPAVLPTVVAPPLTSRRLEIRLTTLLGAGFGLGIALTLSRLVAGLTPGLAASGMVAGVAIGLAVTAWVVNARALLHDRVVVDRWTGEVTASLRSVVEQLVATRVVAVETLLSTAISERDDAENARVADQVSIIDGELREHAVAAARAAALRDREMPAVRAALEAVRAELGEPGAPTTGLF | failed |
| MGTPNDQAVLQAIFNPDTPFGDIVGLDLGEEAEKEEREEDEVFPQAQLEQSKALELQGVMAAEAGDLSTALERFGQAICLLPERASAYNNRAQARRLQGDVAGALEDLERAVELSGGRGRAARQSFVQRGLLARLQGRDDDARRDFERAARLGSPFARRQLVLLNPYAALCNRMLADMMGQLRRPRDSR | failed |
| MMEQALQTITLSCEWSEERQCFWLSSSSPATSWAPLVFAWHEETFYGTLIDSVIVNGREVVQLSPWQALTFFASRPSISFVAIEWKDEFTAQLETWARQIWDDLRERRFRPDFAAWKERRSTLWSEAQHTRWLGLDADPHPFITTWRSLAIADWLSRDPELRDIWQEIIKDYPAILARNDQWISGEDDWLEQIGWLGERPLFTVGLRLVEPPEDGDSWTLETVLIALDDSVVVPVDEIPRAWRPYEQSIARAIRRIETIIPWLGGNGELRNELSDDEAWLFLSEESLKLTEAGVRLLLPDWWHNIRQAQLSIKAKLSPSVHAESLFGLERLSDFDWRVATNGIELTEEEFAAIAEQKRRLIRLRGQWIALDPALVRRAQTLMEKAKQEGVPIHEIVAQTLLAEANARDEATDEHIPIHIDVQNQFRAFIRQLHNIDELPTAVVPPSFHGTLRPYQQRGVDWLAFLRRFGFGACLADDMGLGKTVQLLAYLAYVKETEHPDTPALLICPTSVIGNWQKECARFTPELRVYTHHGPNRAKHEAFLQTAGRADLVITSYSLAHLDGDDLKQLHWHTVCLDEAQNIKNAQTKQARAIRRLRAKHKIALSGTPVENRLNELWSIFHFLNPGYLGSATEFERRFAGPIEKEGDAHKKAALQALIRPFLLRRTKTDEAVALNLPDKLEQKEYCPLTAEQAALYEQLVNDTLERAKAASPFARRGLILQMLNGIKQICNHPALYLKERSPRQLVERSHKLEKLVELVEQIRANDESCLIFTQYVRMGEMIQELLSDLFDEPVLFLNGSVPKPTRDRMVDEFQARKAPIFLLSLKAGGTGLNLTAANHVIHFDRWWNPAVENQATDRAYRIGQTKFVHVHKLITTGTIEEKIDEMLEQKQALADVITEGETWITELSDDELRDLLTLSAAAKGGA | failed |
| VLESVRKEWLEIMDRELLEKARSLINANYISTTLSTVDRNYEVNIAVISVLEMIGDDTIICARFGADKTYANLKETGKGVFMVLLTDNDKSKDGIRVYVELSADLQEGEYFDRIKKRLDNTTYKNFPLKNCLVFKIVKILPVSLLRK | not failed |
| MAAARDQLQMAADVARLGIWRWNLADDSLQWNERMCEMYGQPLALRDGGLVYEHWRSRLHPEDLERTEASLRAAVEGRGNYDVIFRVVLPDGGIRFIQAGAQVERDADGNPLQVTGINIDITSDQQLQARLREAKEQADAASAAKSSFLANMSHEIRTPMNAVLGML | failed |
| MRIAALFTCIIGVFMLATSVQAAQPADITRLSNGLTVLVLKDDRFPLASLRLYVHAGSAFETPEEAGISHLLEHMVFKGTVKRPKGQVARDVESVGGYLNAATSFDYTVYLTDMPSTQWKLGMDVLRDMAFEPALDPAELESEKDVVIAELQRGEDSPDSRIFQSLQAGTLKGTTYERPIIGYRETIRATTADTMRAYIRKHYQPQSMLLTVVGNVDPAEVRAEAERLFGGLTNDQNITPPAAIDARAFAHGPVVNVEHGPWKKVYLGVALPVPGLKALQAAQLDMLSQLLGGDPTALLYRTFKYEKQLVDDISVANYSFERVGMLYITAELDADKVETFWKELTTMLAGLKADAFTEQEFERARLNIEDGLYRSKETVAGLASKEGYFQFFSDGPQGEANYLQAVRDVERPQLEALIRDWLRPERLTVSVLLPEGTKAPALAATLKSTWPSKGKAAEEGNAAAVGKTETVDLGGGRKVVLIPDTTLPYTALDMVFSGGNALLDQNRQGLAALTASVLTKGTLKHDAPTLEAFQSDRAASLGASAGRRTFTLSLREPSRFDGDMFGLLHEVLTTPALAPDEVAREKRNQVASIRAREDQPLGLAFRHLTPFLFPGHSYGFYHLGQPETVEGFTRDDVKAFWARQAAQPWVMSVAGSFDREAVLRFAKSLPAPSGKPVSLDAPAWTPEKALDLRLPERNQAHLLLVFPTVGLAHKDTPALELLQSVLAGQSGLLFRDMRDKQGLGYTVTAMNWQSDLAGFMVLYIGTEPGKLEQAEAGFRKVIDQLHATALPDEELRRGKNQMRGDYYREHQRLGSRSSEAAMLTSQGYPLLFNREVIDKAEKLAPSDLERVARTYLDMNKVRVVKVLP | failed |
| MTKVLILGANGRIARIVEQRLLAETDVQLTLVLRNAGRLLVTSPERETVIQGDVSDSQLLDTVMPNQDIVYANLAGNMALLAQTIITSMNRNHVPHLIWVTGSGLYHETPNPFGAWVEQVVGHAAKNDTRHAARIIESSDIPATIIRAAYMTDDTKIDYELTYKGERFKGTMISRASIADLIMKIIAEPTAYENTSLGIAQPGTDNMLPQVKLMAQHR | failed |
| MQGLVNMVYQQTERLGYKNLEMIKGLDRTENYSKLKKYYRSCVKEYELSNKAIEEAKGFASSKAYRSASEAAARAFDSISMCEAYLEGSKTPGYVTTRNWWFERMCDIDKIFTDLLISAKF | failed |
